Literature values as cited in paper PMC3931982.

Biological target: RXR LBD (Homo sapiens) (UniProt P19793)

RXR LBD (from UniProt P19793)
Kd: 4 nM
